From US20230285581A1
Positions count from the first letter of the chain named. Numbers in names are those of the source.

How the values were obtained:
[1] = molecular target: human MSR1 extracellular domain expressed with a N-terminal nonahistidine tag (His9-hMSR1; R&D Systems, Cat #2708-MS) (human) (UniProt P21757); assay: competition ELISA; 500 nM antibody, competitor 5 nM Ox-LDL, plate-coated His9-hMSR1
[2] = molecular target: human MSR1 extracellular domain expressed with a N-terminal nonahistidine tag (His9-hMSR1; R&D Systems, Cat #2708-MS) (human) (UniProt P21757); assay: competition ELISA; 100 nM antibody, competitor Ac-LDL, plate-coated His9-hMSR1
[3] = molecular target: human MSR1 extracellular domain expressed with a N-terminal nonahistidine tag (His9-hMSR1; R&D Systems, Cat #2708-MS) (human) (UniProt P21757); assay: competition ELISA; 300 nM antibody, competitor biot-AGE-BSA, plate-coated His9-hMSR1
[4] = molecular target: endogenously expressed human MSR1 on PMA-treated THP-1 cells (human) (UniProt P21757); assay: ECL cell binding, PMA-treated THP-1 cells
Sequence of endogenously expressed human MSR1 on PMA-treated THP-1 cells (human) (P21757 whole entry): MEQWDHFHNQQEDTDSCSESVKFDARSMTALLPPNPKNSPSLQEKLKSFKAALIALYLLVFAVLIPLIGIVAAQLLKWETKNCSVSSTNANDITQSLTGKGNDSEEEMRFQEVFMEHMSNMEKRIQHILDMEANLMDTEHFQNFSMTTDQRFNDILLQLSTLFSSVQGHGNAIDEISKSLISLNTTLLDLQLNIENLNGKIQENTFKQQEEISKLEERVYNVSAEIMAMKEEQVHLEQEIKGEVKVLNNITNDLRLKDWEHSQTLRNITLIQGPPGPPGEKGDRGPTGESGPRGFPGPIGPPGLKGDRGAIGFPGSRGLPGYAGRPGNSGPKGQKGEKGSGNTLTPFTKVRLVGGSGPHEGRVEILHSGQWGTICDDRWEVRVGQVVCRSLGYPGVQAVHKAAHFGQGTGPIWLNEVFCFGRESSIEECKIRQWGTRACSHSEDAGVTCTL

[5] = molecular target: full length human MSR1 with a C-terminal Myc tag on HEK293.Myc.hMSR1 cells (human) (UniProt P21757); assay: ECL cell binding, HEK293.Myc.hMSR1 cells
Sequence of full length human MSR1 with a C-terminal Myc tag on HEK293.Myc.hMSR1 cells (human) (P21757 whole entry): as above

[6] = molecular target: full length monkey MSR1 on HEK293.mfMSR1 cells (Macaca fascicularis); assay: ECL cell binding, HEK293.mfMSR1 cells
Sequence of full length monkey MSR1 on HEK293.mfMSR1 cells (Macaca fascicularis) (chain, as listed by the source): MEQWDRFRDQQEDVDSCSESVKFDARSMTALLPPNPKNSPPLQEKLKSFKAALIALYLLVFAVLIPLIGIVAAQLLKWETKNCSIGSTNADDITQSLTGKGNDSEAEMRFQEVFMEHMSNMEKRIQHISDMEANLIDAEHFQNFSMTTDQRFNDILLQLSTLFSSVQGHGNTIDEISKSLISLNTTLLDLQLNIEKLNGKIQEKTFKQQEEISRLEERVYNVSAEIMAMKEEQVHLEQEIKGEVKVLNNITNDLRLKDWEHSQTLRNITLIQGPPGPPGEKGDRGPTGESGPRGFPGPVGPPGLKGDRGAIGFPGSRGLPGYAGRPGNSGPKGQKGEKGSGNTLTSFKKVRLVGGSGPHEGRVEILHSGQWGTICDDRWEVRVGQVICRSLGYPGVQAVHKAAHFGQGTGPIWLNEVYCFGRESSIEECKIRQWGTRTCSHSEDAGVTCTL

[7] = molecular target: mouse MSR1 on RAW264.7 cells (mouse) (UniProt P30204); assay: flow cytometry, RAW264.7 cells, 10 ug/mL
Sequence of mouse MSR1 on RAW264.7 cells (mouse) (P30204 whole entry, the tested form may be a part): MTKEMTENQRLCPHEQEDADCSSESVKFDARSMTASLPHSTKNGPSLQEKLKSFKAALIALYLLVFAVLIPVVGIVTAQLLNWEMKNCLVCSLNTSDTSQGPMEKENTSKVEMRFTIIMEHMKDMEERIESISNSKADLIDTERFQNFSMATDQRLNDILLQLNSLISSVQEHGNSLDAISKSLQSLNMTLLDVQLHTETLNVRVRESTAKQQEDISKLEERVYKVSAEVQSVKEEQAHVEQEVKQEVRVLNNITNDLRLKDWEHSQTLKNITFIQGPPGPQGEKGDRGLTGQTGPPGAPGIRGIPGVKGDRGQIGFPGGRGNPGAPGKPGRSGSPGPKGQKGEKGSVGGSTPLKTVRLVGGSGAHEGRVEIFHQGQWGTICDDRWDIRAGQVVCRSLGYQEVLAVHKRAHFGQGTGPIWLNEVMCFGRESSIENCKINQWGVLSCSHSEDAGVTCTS

[8] = molecular target: human MSR1 extracellular domain expressed with a N-terminal nonahistidine tag (His9-hMSR1; R&D Systems, Cat #2708-MS) (human) (UniProt P21757); assay: competition ELISA; 1 µM antibody, competitor 10 nM Ox-LDL, plate-coated His9-hMSR1
[9] = molecular target: human MSR1 extracellular domain expressed with a N-terminal nonahistidine tag (His9-hMSR1; R&D Systems, Cat #2708-MS) (human) (UniProt P21757); assay: competition ELISA; 500 nM antibody, competitor 10 nM Ox-LDL, plate-coated His9-hMSR1

Sequence of human MSR1 extracellular domain expressed with a N-terminal nonahistidine tag (His9-hMSR1; R&D Systems, Cat #2708-MS) (human) (P21757 other isoform, or with tags, fused parts or gaps): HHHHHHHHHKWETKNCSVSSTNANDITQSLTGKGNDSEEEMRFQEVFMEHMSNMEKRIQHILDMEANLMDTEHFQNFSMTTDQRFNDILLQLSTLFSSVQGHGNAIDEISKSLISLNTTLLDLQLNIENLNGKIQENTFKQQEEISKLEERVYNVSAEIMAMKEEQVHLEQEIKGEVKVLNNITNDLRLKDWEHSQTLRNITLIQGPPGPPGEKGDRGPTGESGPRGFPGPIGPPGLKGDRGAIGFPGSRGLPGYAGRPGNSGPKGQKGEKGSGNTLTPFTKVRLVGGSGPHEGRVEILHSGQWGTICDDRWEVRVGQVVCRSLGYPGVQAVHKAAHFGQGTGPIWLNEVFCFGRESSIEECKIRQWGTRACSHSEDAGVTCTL

B1: H2aM21229N (antibody, mouse IgG2a, V domains shown)
VH: EVQLVESGGGLVKPGGSLRLSCAASGFTFSRYSMNWVRQAPGKGLEWVSSISSSSSYIYYGDTVKGRFTISRDNAKKSLYLQMNSLRAEDTAVYYCVRDRGQLVLYFDYWGQGTLVTVSS
VL: DIQMTQSPASLSTSIRDRVTITCRASLSISSFLNWFQQRPGKAPKLLIYVASNLQSGVPSRFSDSGSGTDFTLTISSLQPEDFATYYCQQNYSTPPITFGQGTRLEIK
B1 gave a % Blocking [1] of 38%, a % Blocking [2] of -11% and a % Blocking [3] of 3%. The ratio of 11 nM antibody binding signal (RLU) to isotype control [4] was 56 and the ratio of 11 nM antibody binding signal (RLU) to isotype control [5] was 78.

B2: H1H27747P-N297Q (antibody, human IgG1, V domains shown)
VH: QVQLVESGGAVVQPGRSLRLSCAASGFTFSYYGMHWVRQAPGKGLEWVAVISYDGSKKYYADSVKGRFTISRDNSKNTLYLQMNSLRAEDTAVYYCAKDLTVDFYYGMDVWGQGTTVTVSS
VL: DIQMTQSPSSVSASVGDRVTITCRASQGISSWLAWYQQKPGKAPKLLIYATSSLQSGAPSRFSGSGSGTDFTLTISSLQPEDFATYFCQQANSFPYTFGQGTKLEIKR
For B2, the ratio of 11 nM antibody binding signal (RLU) to isotype control [6] was 21, the % Blocking [2] was -44% and the MFI [7] was 3630. The S/N [7] was 1, the % Blocking [3] was -2% and the ratio of 11 nM antibody binding signal (RLU) to isotype control [4] was 13. The % Blocking [8] was -31% and the ratio of 11 nM antibody binding signal (RLU) to isotype control [5] was 26.

B3: H1H27754P-N297Q (antibody, human IgG1, V domains shown)
VH: EVQLVESGGGLVQPGGSLRLSCAASGFTFRTYAMTWVRQAPGKGLDWVSAITGDGGNTYYADSVKGRFTISRDNSKNTLYLQMNSLRAEDTAIYYCAKDQRFSFALYYFDYWGQGTLVTVSS
VL: B2 VL with K42N, T51A, S52F, A58V, F87Y, S93N, Y96W, L104V
B3 was tested, and the ratio of 11 nM antibody binding signal (RLU) to isotype control [6] was 53, the % Blocking [2] was -42% and the MFI [7] was 5410. For the same binder, the S/N [7] was 1, the % Blocking [3] was -9% and the ratio of 11 nM antibody binding signal (RLU) to isotype control [4] was 66. It also gave a % Blocking [8] of -44% and a ratio of 11 nM antibody binding signal (RLU) to isotype control [5] of 55.

B4: H1H27734P-N297Q (antibody, human IgG1, V domains shown)
VH: EVQLVESRGGLVQPGGSLRLSCAASGFTFSSYAMSWVRQAPGKGLEWVSAISGSGGSTFYADSVKGRFTISRDNSKNTVYLQMNSLRAEDTAVYYCAKALVLRFLEWLGDYWGQGTLVTVSS
VL: DIQMTQSPSTLSASVGDRVTITCRASQSISSWLAWFQQKPGKAPKLLIYKASSLESGVPSRFSGSGSGTEFTLTISSLQPDDFATYYCQQYKSYWTFGQGTKVEIKR
Work on B4 yielded a ratio of 11 nM antibody binding signal (RLU) to isotype control [6] of 28, a % Blocking [2] of -38% and an MFI [7] of 4780. It also gave a S/N [7] of 1, a % Blocking [3] of -4% and a ratio of 11 nM antibody binding signal (RLU) to isotype control [4] of 21. It also gave a % Blocking [8] of -15% and a ratio of 11 nM antibody binding signal (RLU) to isotype control [5] of 40.

B5: H1H27729P-N297Q (antibody, human IgG1, V domains shown)
VH: QVQLVESGGGLVKPGGSLRLSCAASGFIFSDYYMSWIRQAPGKGLEWVSYISSSGTTIYGDSVKGRFTMSRDNAKNSLYLQMNSLRAEDTAVYYCARNYALFDYWGQGTLVTVSS
VL: DIQMTQSPSSLSASVGDRVTITCQASQDISKYLNWYQQKPGKAPKLLIYYTSNLETGVPSRFSGSGSGTDFTFTISSLQPEDIATYYCHQSDYLPFTFGPGTKVDIKR
With B5 the ratio of 11 nM antibody binding signal (RLU) to isotype control [6] was 6, the % Blocking [2] was 8% and the MFI [7] was 3480. It also gave a S/N [7] of 1, a % Blocking [3] of 15% and a ratio of 11 nM antibody binding signal (RLU) to isotype control [4] of 8. For the same binder, the % Blocking [8] was 36% and the ratio of 11 nM antibody binding signal (RLU) to isotype control [5] was 17.

B6: H1H27739P-N297Q (antibody, human IgG1, V domains shown)
VH: EVQLVESGGGLVQPGGSLRLSCTASGFTFSSYAMSWVRQAPGKGLEWVSAISGTGSSTYFTDSVKGRFAISRDNSKNTLYLQMNSLRAEDTAVYYCAKDGEWLSTVTLFDYWGQGTLVTVSS
VL: EIVMTQSPATLSVSPGERATLSCRASQSVSSNLAWYQQKPGQAPRLLIYGASTRATGIPARFSGSGSGTDFTLTISSLQSEDFALYYCQQYFIWPPHPTFGPGTKVDIKR
In the case of B6, the ratio of 11 nM antibody binding signal (RLU) to isotype control [6] is reported as 20, the % Blocking [2] is reported as -47% and the MFI [7] is reported as 3270. The S/N [7] was 1, the % Blocking [3] was -9% and the ratio of 11 nM antibody binding signal (RLU) to isotype control [4] was 9. It also gave a % Blocking [8] of -41% and a ratio of 11 nM antibody binding signal (RLU) to isotype control [5] of 22.

B7: H1H21227N-N297Q (antibody, human IgG1, V domains shown)
VH: QVQLVQSGAEVKKPGASVKVSCKVSGYTLTELSIHWVRQVPGKGLEWMGGFDPEEGETIFAQEFRDRVTLTEDTSPDTAYMELSSLKSEDAAVYYCTTPRYCNNGICYDYWGQGTLVTVSS
VL: DIQMTQSPSSLSASVGDRVTITCRASQSISNYLNWYQQKPGKAPKLLIYTASSLQSGVPSRFSGSGSGTDFTLTISSLQTEDFATYYCQQSYSNFPITFGQGTRLEIKR
For B7, the % Blocking [9] was 97%, the ratio of 11 nM antibody binding signal (RLU) to isotype control [6] was 23 and the % Blocking [2] was 105%. It also gave an MFI [7] of 12800, a S/N [7] of 5 and a % Blocking [3] of 96%. The ratio of 11 nM antibody binding signal (RLU) to isotype control [4] was 5 and the ratio of 11 nM antibody binding signal (RLU) to isotype control [5] was 37.

B8: H1H21231N-N297Q (antibody, human IgG1, V domains shown)
VH: EVQLVESGGGLVQPGGSLRLSCAASGFTFSDHYMDWVRQAPGKGLEWVGRTRNKANSHTTEYTASVTGRFTISRDDSRNSLYLQMNSLKTEDTAVYYCVRAGIIGTLFDYWGQGTLVTVSS
VL: B7 VL with S7F, N31S, Y32F, Y36F, L46F, T50A, T80P, N94S, F95P
With B8 the % Blocking [9] was 26%, the ratio of 11 nM antibody binding signal (RLU) to isotype control [6] was 69 and the % Blocking [2] was -60%. For the same binder, the MFI [7] was 3580, the S/N [7] was 1 and the % Blocking [3] was -50%. The ratio of 11 nM antibody binding signal (RLU) to isotype control [4] was 45 and the ratio of 11 nM antibody binding signal (RLU) to isotype control [5] was 64.

B9: H1H21227N-N297D (antibody, human IgG1, V domains shown)
VH: B7 VH
VL: B7 VL
In the case of B9, the % Blocking [9] is reported as 99%, the ratio of 11 nM antibody binding signal (RLU) to isotype control [6] is reported as 25 and the % Blocking [2] is reported as 101%. It also gave a % Blocking [3] of 97%, a ratio of 11 nM antibody binding signal (RLU) to isotype control [4] of 6 and a ratio of 11 nM antibody binding signal (RLU) to isotype control [5] of 34.

B10: H1H21231N (antibody, human IgG1, V domains shown)
VH: B8 VH
VL: B7 VL with S7F, N31S, Y32F, Y36F, L46F, T50A, T80P, N94S, F95P
B10 gave a % Blocking [9] of 22%, a ratio of 11 nM antibody binding signal (RLU) to isotype control [6] of 75 and a % Blocking [2] of -62%. It also gave a % Blocking [3] of -44%, a ratio of 11 nM antibody binding signal (RLU) to isotype control [4] of 42 and a ratio of 11 nM antibody binding signal (RLU) to isotype control [5] of 61.

B11: H1H21227N (antibody, human IgG1, V domains shown)
VH: B7 VH
VL: B7 VL
B11 showed a % Blocking [9] of 100%, a ratio of 11 nM antibody binding signal (RLU) to isotype control [6] of 26 and a % Blocking [2] of 105%. It also gave a % Blocking [3] of 99%, a ratio of 11 nM antibody binding signal (RLU) to isotype control [4] of 7 and a ratio of 11 nM antibody binding signal (RLU) to isotype control [5] of 37.

B12: H1H21234N-N297Q (antibody, human IgG1, V domains shown)
VH: QVQLQESGPGLVKPSETLSLTCTVTGGSISRNYWSWIRQPPGKGLEWIGYIYYSGSIDYNPSLKSRVTISVDTSKNQFSLKLSSMTAADTAVYYCARDRWNWKYGMDVWGQGTTVIVSS
VL: EIVLTQSPGTLSLSPGERATLSCRASQTVRNNYLAWYHQKPGQAPRLLIYGASSRATGIPDRFSGSGSGTDFTLTISRLEPEDFTVYYCHQYGNSPWTFGQGTKMEIKR
Binder B12 has a % Blocking [9] of 49%, a ratio of 11 nM antibody binding signal (RLU) to isotype control [6] of 35 and a % Blocking [2] of 75%. It also gave an MFI [7] of 7050, a S/N [7] of 3 and a % Blocking [3] of -27%. It also gave a ratio of 11 nM antibody binding signal (RLU) to isotype control [4] of 25 and a ratio of 11 nM antibody binding signal (RLU) to isotype control [5] of 43.

B13: H2aM25695N (antibody, mouse IgG2a, V domains shown)
VH: B12 VH with D58N, T73M, S83N, M85V
VL: B12 VL with N32S, T85A, H90Q, N94S, P96Y
B13 gave a % Blocking [9] of 96%, a ratio of 11 nM antibody binding signal (RLU) to isotype control [6] of 45 and a % Blocking [2] of 65%. The % Blocking [3] was 16%, the ratio of 11 nM antibody binding signal (RLU) to isotype control [4] was 8 and the ratio of 11 nM antibody binding signal (RLU) to isotype control [5] was 35.

B14: H1H21234N (antibody, human IgG1, V domains shown)
VH: B12 VH
VL: B12 VL
Binder B14 has a % Blocking [9] of 98%, a ratio of 11 nM antibody binding signal (RLU) to isotype control [6] of 31 and a % Blocking [2] of 70%. The % Blocking [3] was 21%, the ratio of 11 nM antibody binding signal (RLU) to isotype control [4] was 18 and the ratio of 11 nM antibody binding signal (RLU) to isotype control [5] was 32.
